Source: EP4683932A2

Target: Pak2 kinase (UniProt Q13177)
Assay: cell-based or functional assay

Sequence of UniProt Q13177 (Q13177 2-524 limits assumed): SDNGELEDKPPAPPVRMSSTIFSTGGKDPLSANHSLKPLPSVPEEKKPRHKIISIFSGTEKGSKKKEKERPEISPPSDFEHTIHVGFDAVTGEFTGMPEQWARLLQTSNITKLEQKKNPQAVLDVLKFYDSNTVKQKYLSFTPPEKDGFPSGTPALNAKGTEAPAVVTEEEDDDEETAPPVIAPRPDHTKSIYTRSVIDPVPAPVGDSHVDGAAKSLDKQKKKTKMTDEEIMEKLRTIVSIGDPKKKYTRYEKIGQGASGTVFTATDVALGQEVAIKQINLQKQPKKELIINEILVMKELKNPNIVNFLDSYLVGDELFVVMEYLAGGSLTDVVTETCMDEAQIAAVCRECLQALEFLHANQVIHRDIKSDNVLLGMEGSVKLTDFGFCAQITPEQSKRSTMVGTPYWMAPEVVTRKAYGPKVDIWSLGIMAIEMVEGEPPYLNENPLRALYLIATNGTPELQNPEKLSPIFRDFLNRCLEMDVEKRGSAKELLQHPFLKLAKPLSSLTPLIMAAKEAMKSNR

Substance: HIV-1 Nef protein, wild type (Nef from HIV-1 Clade B)
- phosphorylation of the Pak2 kinase at S55, quantitative phosphoproteomics of NALM6-stimulated CAR T cells, Nef-WT compared to NefAxxA: 2.15 log2Fc
- phosphorylation of the Pak2 kinase at S152, quantitative phosphoproteomics of NALM6-stimulated CAR T cells, Nef-WT compared to NefAxxA: 1.17 log2Fc
